Assay [1] has as its target T1, CCR5 on CD4+ T cells of rhesus macaques (rhesus macaque, UniProt P61813 1-352).
T1 construct: also called surface CCR5; CD195
Briefly: CCR5 receptor occupancy by flow cytometry on blood CD4+ T cells after a single 10 mg/kg s.c. dose in rhesus macaques. In general terms: A flow cytometer gives signals particle by particle.

The target of assay [2] is T1, CCR5 on CD4+ T cells of rhesus macaques. Briefly: CCR5 receptor occupancy by flow cytometry on blood, rectal and vaginal CD4+ T cells after a single 10 mg/kg s.c. dose in rhesus macaques.

B1: leronlimab (human IgG4 Fc) (antibody, V domains shown)
VH: EVQLVESGGGLVKPGGSLRLSCAASGYTFSNYWIGWVRQAPGKGLEWIGDIYPGGNYIRNNEKFKDKTTLSADTSKNTAYLQMNSLKTEDTAVYYCGSSFGSNYVFAWFTYWGQGTLVTVSS
VL: DIVMTQSPLSLPVTPGEPASISCRSSQRLLSSYGHTYLHWYLQKPGQSPQLLIYEVSNRFSGVPDRFSGSGSGTDFTLKISRVEAEDVGVYYCSQSTHVPLTFGQGTKVEIK
notes: also called PRO140; PRO 140
Regarding B1, in assay [1], the binding result was “binds”.

B2: macaque IgG4 LS leronlimab (antibody, V domains shown)
VH: EVQLVESGGGLVKPGGSLRLSCAASGYTFSNYWIGWVRQAPGKGLEWIGDIYPGGNYIRNNEKFKDKTTLSADTSKNTAYLQMNSLKTEDTAVYYCGSSFGSNYVFAWFTYWGQGTLVTVSS
VL: DIVMTQSPLSLPVTPGEPASISCRSSQRLLSSYGHTYLHWYLQKPGQSPQLLIYEVSNRFSGVPDRFSGSGSGTDFTLKISRVEAEDVGVYYCSQSTHVPLTFGQGTKVEIKR
notes: also called MacLS; macaque IgG4 LS variant
With B2, the binding result in assay [2] is “binds”.

The values are drawn from patent US20240392015A1 (OREGON HEALTH AND SCIENCE UNIVERSITY, published 2024).
